Laboratory results taken from patent US20100322935A1 (Hoffmann-La Roche, published 2010).

Key:
[1] = target: T1, human EGFR ECD (Extracellular Domain) (human, UniProt P00533 25-645); assay: SPR (Biacore T100)
T1 construct: extracellular domain; also called EGFR (HER1); HER1
Excerpt: (§1) Briefly, for affinity measurements Goat-Anti-Human IgG, JIR 109-005-098 antibodies were immobilized on a CM5 chip via amine coupling for presentation of the antibodies against human ECD-Fc tagged. […] Biacore T100 Evaluation Software version 1.1.1 was used for analysis of sensorgrams and for calculation of affinity data.
(§2) Binding of the generated antibodies to human ANGPT2 and VEGF was also investigated by surface plasmon resonance using a BIACORE T100 instrument (GE Healthcare Biosciences AB, Uppsala, Sweden). Briefly, for affinity measurements goat<hIgG-Fcg> polyclonal antibodies were immobilized on a CM5 or CM4 chip via amine coupling for presentation of the antibodies against human ANGPT2 and VEGF. […] Biacore T100 Evaluation Software version 1.1.1 was used for analysis of sensorgrams and for calculation of affinity data.

[2] = target: T2, human VEGF165/VEGF121-His (human, UniProt P15692-4 27-191, limits assumed); assay: SPR (Biacore T100)
T2 construct: R&D Systems or in house purified; also called VEGF-A; hVEGF
Excerpt: as §1, §2

T2 sequence (P15692 other isoform, or with tags, fused parts or gaps limits assumed): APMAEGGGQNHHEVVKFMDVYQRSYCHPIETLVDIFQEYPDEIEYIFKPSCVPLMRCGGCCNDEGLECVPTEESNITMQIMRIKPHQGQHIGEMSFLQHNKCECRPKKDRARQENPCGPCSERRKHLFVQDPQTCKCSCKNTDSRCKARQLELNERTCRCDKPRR

B1: trispecific and tetravalent antibody recognizing Angiopoietin-2, VEGF-A, and EGFR according to FIG. 5a (antibody, human IgG1, kappa)
light 1: QPGLTQPPSVSVAPGQTARITCGGNNIGSKSVHWYQQKPGQAPVLVVYDDSDRPSGIPERFSGSNSGNTATLTISRVEAGDEADYYCQVWDSSSDHYVFGTGTKVTVLRTVAAPSVFIFPPSDEQLKSGTASVVCLLNNFYPREAKVQWKVDNALQSGNSQESVTEQDSKDSTYSLSSTLTLSKADYEKHKVYACEVTHQGLSSPVTKSFNRGEC
heavy 1: not shown
light 2: DIQMTQSPSSLSASVGDRVTITCSASQDISNYLNWYQQKPGKAPKVLIYFTSSLHSGVPSRFSGSGSGTDFTLTISSLQPEDFATYYCQQYSTVPWTFGQGTKVEIKSSASTKGPSVFPLAPSSKSTSGGTAALGCLVKDYFPEPVTVSWNSGALTSGVHTFPAVLQSSGLYSLSSVVTVPSSSLGTQTYICNVNHKPSNTKVDKKVEPKSC
heavy 2: not shown
notes: Trispecific, tetravalent: four different chains, each once; CH1/CL (Ckappa) domain exchanged knobs-into-holes antibody; scFvs fused via a (G4S)4 connector; Expressed in HEK293F cells; also called trispecific antibody with disulfide stabilized scFv against EGFR on both heavy chains
[1]
  Kd: 6 nM
  koff: 0.00023 s⁻¹
  kon: 47000 M⁻¹ s⁻¹
[2]
  Kd: < 0.1 nM
  koff: < 1e-06 s⁻¹
  kon: 100000 M⁻¹ s⁻¹
